Experimental data reported in the Human Domainome abundance scans (Beltran et al. 2025).

B1: POU domain, class 3, transcription factor 2, residues 262 to 338; numbered along this chain, P20265 (parent)
chain: EDTPTSDDLEQFAKQFKQRRIKLGFTQADVGLALGTLYGNVFSQTTICRFEALQLSFKNMCKLKPLLNKWLEEADSS

Variants of: B1
Assay: abundance fitness (aPCA) (normalised: wild type 0, dead -1); higher = more abundant; growth selection in yeast, the domain comes from the species named
Conditions: Homo sapiens

Abundance fitness of substitutions, site by site:
T36: M -0.11 | I -0.184 | E 0.056 | R 0.012 | C -0.156 | Q -0.038 | Y 0.026 | W -0.33 | N 0.052 | A -0.021 | F -0.342 | H 0.015 | G -0.079 | L -0.194 | S 0.042 | P -0.137
L34: C -0.224 | N -0.796 | E -1.01 | G -0.854 | F -0.732 | K -0.441 | T -0.742 | I -0.132 | M -0.035 | H -1.2 | Q -0.948 | D -0.76 | W -0.973 | S -0.955 | R -0.773 | V -0.329 | A -0.646 | Y -0.895
D29: A -0.205 | L -0.63 | C -0.542 | Y -0.251 | Q -0.04 | F -0.649 | N -0.228 | M -0.299 | V -0.607 | S -0.248 | R -0.285 | H -0.249 | W -0.588 | E -0.04 | G -0.239 | T -0.428 | K -0.26
Y38: M -0.331 | T 0.032 | I -0.298 | H -0.029 | V -0.103 | W -0.341 | E -0.199 | N -0.043 | L -0.41 | S -0.012 | P -0.36 | A -0.069 | F -0.036 | K -0.234 | G -0.074 | Q -0.141 | R -0.27 | C -0.065 | D -0.036
V41: A 0.017 | Y -0.12 | M 0.012 | H 0.039 | W 0.004 | N 0.008 | D 0.047 | T 0.009 | G 0.021 | E 0.034 | K 0.065 | R -0.023 | P -0.042 | I -0.157 | S -0.017 | C 0.036
V30: P -0.569 | I -0.235 | Y -0.652 | W -0.793 | Q -1.11 | T -0.501 | G -0.776 | S -1 | F -0.552 | H -0.529 | C -0.176 | L -0.306 | R -0.979 | D -0.794 | A -0.23 | M -0.655 | N -0.381
L37: I 0.063 | E -0.012 | V -0.042 | G -0.328 | N -0.121 | T 0.048 | S -0.093 | D -0.118 | F -0.053 | A -0.023 | C -0.031 | P -0.293 | W -0.201 | H -0.194 | Y -0.157 | Q -0.027
T26: S -0.014 | D -0.601 | G -0.449 | R -0.457 | V -0.797 | A -0.417 | M -0.705 | K -0.399 | Q -0.586 | L -0.758 | H -0.285 | Y -0.89 | E -0.536 | N -0.392 | W -0.898 | P -0.553 | I -0.635
F25: R -0.321 | N -0.709 | K -0.072 | E -0.773 | A -0.183 | C -0.192 | V -0.216 | M -0.107 | L -0.08 | P -0.837 | Q -0.431 | H -0.266 | D -0.749 | Y 0.041 | W -0.149 | G -0.983 | T -0.632 | I -0.096 | S -0.513
Q44: D -0.018 | N -0.133 | M -0.145 | K -0.009 | F -0.373 | H -0.031 | P 0.023 | G 0.019 | A 0.033 | T -0.018 | R -0.066 | S 0.008 | V -0.098 | W -0.399 | L -0.248
T45: C -0.163
Q27: L -0.167 | D -0.356 | V -0.115 | I -0.222 | R -0.201 | A -0.071 | C 0.045 | S -0.125 | E -0.004 | Y 0.084 | P -0.028 | H 0.02 | N -0.419 | K -0.132 | T 0.04
N40: Q 0.069 | R 0.023 | G 0.035 | E 0.108 | M -0.107 | L -0.173 | T -0.063 | P -0.005 | K -0.016 | A -0.055 | F -0.173 | Y -0.007 | W -0.281 | H 0.06 | C 0.028 | D 0.016 | I -0.045 | S 0.022
G24: W -0.784 | Y -0.86
L32: V -0.448 | R -0.033 | S -0.197 | W -0.015 | K 0.493 | F -0.25 | N 0.091
A33: H -0.002 | M -0.077 | L -0.304 | F -0.329 | C -0.19 | E -0.172 | N -0.477 | K -0.264 | T -0.113 | Y -0.314 | Q 0.015 | S -0.091 | R -0.102 | W -0.021 | I -0.138 | D -0.284
G31: A 0.047 | W -0.207 | V -0.113 | Q -0.188 | H -0.287 | E -0.224 | C -0.009 | S 0.025 | I -0.399 | K -0.383 | L -0.59 | F -0.39 | Y -0.213 | N -0.44 | M -0.291 | R -0.383 | D -0.385 | P -0.648 | T -0.096
F42: N -0.582 | H -0.138 | S -0.268 | Q 0.072 | M -0.004 | L 0.053 | C -0.006 | K -0.148 | I -0.037 | A -0.012 | P -0.368 | G -0.397 | Y 0.056 | R -0.292 | T -0.061
G35: V -0.345 | H -0.06 | S 0.037 | F -0.183 | C -0.113 | A -0.016 | I -0.367 | W -0.239 | P -0.612 | D -0.415 | Q 0.025 | R 0.016 | N 0.008 | E -0.076 | L -0.453 | M -0.174 | T 0.052 | Y -0.155
A28: H -0.116 | M -0.208 | T -0.198 | S -0.086 | Q -0.094 | V -0.204 | R -0.058 | C -0.165 | Y -0.117 | F -0.452 | L -0.196 | N -0.019 | E 0.035 | W -0.301 | P -0.811 | D -0.182 | K 0.067
G39: I -0.808 | C -0.528 | P -0.023 | D -0.079 | M -0.624 | F -0.621 | E -0.207 | V -0.897 | H -0.19 | R -0.25 | L -0.754 | A -0.314 | Y -0.533 | N -0.012 | T -0.325 | K -0.219 | W -0.715 | S -0.321
S43: Q -0.166 | A -0.209 | W -0.5 | G -0.12 | F -0.57 | M -0.569 | R -0.206 | D 0.093 | C -0.042 | K -0.132 | L -0.485 | V -0.703 | I -0.768 | Y -0.486 | P -0.102 | E -0.031 | H 0.007 | N 0.01
